Laboratory results from patent US11141492B2, “Anticancer combinations” (City of Hope, priority 2013, dated 2021).

Assays:
KPC-luc tumors = assay: Orthotopic KPC-luc pancreatic tumor model, intravital imaging (IVIS); type: in vivo, C57BL/6 mice; details: PEGPH20 4.5 mg/kg (~90 ug/mouse) i.v. day 7; shIDO-ST 5×10^6 cfu/mouse i.v. day 8 (alone: days 8 and 12); n=3
Method: To determine the effects of shIDO-ST and PEGPH20™, nine C57BL/6 mice were injected orthotopically (in the pancreas) with 5×10^5 KPC-luc cells. Three small groups (n=3) were created: shIDO-ST alone, PEGPH20™ alone, and shIDO-ST with PEGPH20™. The shIDO-ST alone group received shIDO-ST at a dose of 5×10^6 cfu/mouse through intravenous (i.v.) injection on days 8 and 12. PEGPH20™ alone group received PEGPH20™ at a dose of 4.5 mg/kg (˜90 ug/mouse) on day 7 through i.v. injection. The combination (PEGPH20™ with shIDO-ST) group received PEGPH20™ at 4.5 mg/kg on day 7 followed by treatment with shIDO-ST on day 8 at 5×10^6 cfu/mouse. Mice were imaged using an intravital imaging system (IVIS) at indicated time points after tumor cell implantation. […]
Titration of combination treatment with shIDO-ST and PEGPH20™ was performed to reduce the toxicity observed in initial experiment (FIG. 2). […] Photons emitted from mice imaged in FIG. 2 were quantitated using Living Image® software.
Due to the sensitivity of 7 day KPC-luc tumors to the combination PEGPH20™ and […] treatment (FIG. 2), treatment of implanted KPC-luc tumors was delayed to day 14. […] Doses (previously determined from titration studies described in FIG. 2) consisted of 45 ug of PEGPH20™ followed by 5×10^6 cfu/mouse of shIDO-ST or shScr-ST. […] Photons emitted from mice imaged in FIG. 4 were quantitated using Living Image® software. […]

hyaluronan = assay: Hyaluronan staining of KPC-luc tumor sections; type: in vivo, mice; details: forty-eight hours after treatment; 14 day orthotopic tumors
[1] = test system: vessels within the tumor mass; assay: Anti-CD31 staining of vessels within the tumor mass; type: in vivo, mice; details: 14 day tumors, versus untreated (majority of closed vessels)
Excerpt: Sections from 14 day tumors of mice untreated or treated with PEGPH20 were stained with anti-CD31 antibody to locate cross sections of vessels within the tumor mass. FITC-conjugated secondary specific to CD31 primary and DAPI staining were visualized by fluorescence microscopy.

B1: PEGPH20™: pegylated recombinant human hyaluronidase PH-20 (Halozyme, Inc.) (protein, listed as Homo Sapiens)
chain: MGVLKFKHIFFRSFVKSSGVSQIVFTFLLIPCCLTLNFRAPPVIPNVPFLWAWNAPSEFCLGKFDEPLDMSLFSFIGSPRINATGQGVTIFYVDRLGYYPYIDSITGVTVNGGIPQKISLQDHLDKAKKDITFYMPVDNLGMAVIDWEEWRPTWARNWKPKDVYKNRSIELVQQQNVQLSLTEATEKAKQEFEKAGKDFLVETIKLGKLLRPNHLWGYYLFPDCYNHHYKKPGYNGSCFNVEIKRNDDLSWLWNESTALYPSIYLNTQQSPVAATLYVRNRVREAIRVSKIPDAKSPLPVFAYTRIVFTDQVLKFLSQDELVYTFGETVALGASGIVIWGTLSIMRSMKSCLLLDNYMETILNPYIINVTLAAKMCSQVLCQEQGVCIRKNWNSSDYLHLNPDNFAIQLEKGGKFTVRGKPTLEDLEQFSEKFYCSCYSTLSCKEKADVKDTDAVDVCIADGVCIDAFLKPPMETEEPQIFYNASPSTLSATMFIVSILFLIISSVASL
modifications: PEGylated
tumor growth by IVIS imaging (KPC-luc tumors): euthanized due to significantly large tumors | hyaluronan in KPC-luc tumor tissue sections (hyaluronan): significant depletion of hyaluronan | open vessels in tumors (CD31 staining) [1]: Many more open vessels
